Here are results for one molecule from patent US20260116928A1, “COMPOSITIONS AND PARTICLES FOR PAYLOAD DELIVERY” (Thornhill Therapeutics, Inc., priority 2019, published 2026).

This data set has as its system pancreatin. The data set can be described thus: Pancreatin assay (stability of SEQ ID NO: 3 and exenatide formulations). As to conditions: after 120 minutes of incubation with pancreatin; FIG. 11.

B1: SEQ ID NO: 3: Cholix carrier protein having the sequence of SEQ ID NO: 3 (protein)
chain: MVEEALNIFDECRSPCSLTPEPGKPIQSKLSIPSDVVLDEGVLYYSMTINDEQNDIKDEDKGESIITIGEFATVRATRHYVNQDAPFGVIHLDITTENGTKTYSYNRKEGEFAINWLVPIGEDSPASIKISVDELDQQRNIIEVPKLYSIDLDNQTLEQWKTQGNVSFSVTRPEHNIAISWPSVSYKAAQKEGSRHKRWAHWHTGLALCWLVPMDAIYNYITQQNCTLGDNWFGGSYETVAGTPKVITVKQGIEQKPVEQRIHFSKGSGGSGGGGSGGGGSPRRRRSSSRPVRRRRRPRVSRRRRRRGGRRRRHHHHHH
Turning to B1, the “degradation of SEQ ID NO: 3 by pancreatin” value is given as “completely degraded”.
